# “Also recorded” adds a separate entry of the source.
# Columns and labels:
# peptide pulsed T2 cells [1] = experiment: IFN-gamma ELISPOT: CTL line induced with Foxp3-9-252-WT against T2 cells pulsed with substituted peptide; type: cell-based, human; settings: FIG. 7A, listed as Foxp3-9-252-9V
# Description: IFN-gamma ELISPOT assay was performed using CTL line induced with Foxp3-9-252-WT peptide as responder cells and T2 cells pulsed Foxp3-9-252-WT or Foxp3-9-252-9V peptide as stimulator cells, respectively. T2 cells without peptide pulse were prepared as control. […] IFN-gamma ELISA assay was performed using CTL line induced with Foxp3-9-252-WT peptide as responder cells (1×10^5 cells/well) and Foxp3-9-252-WT (-solid circle-), Foxp3-9-252-9V (-open circle-) or HIV-A02 (-solid triangle-) peptide pulsed T2 cells as stimulator cells (1×10^4 cells/well). Peptide pulse of stimulator cells was conducted at 37 degree Celsius for 2 hours in each kind of peptide and peptide concentration.
# (§1) To examine the specific CTL activity, IFN-gamma ELISPOT assay and IFN-gamma ELISA were performed. Briefly, peptide-pulsed A24-LCL, T2 cell (1×10^4/well) or the cells endogenously expressing Foxp3 and HLA molecule was prepared as a stimulator cells. Cultured CTL lines in 48 wells were used as a responder cells. IFN-gamma ELISPOT assay and IFN-gamma ELISA were performed under manufacture procedure.
# And then the present inventers examined whether peptide-pulsed stimulator cells using these substitutions were recognized by CTLs generated with Foxp3-9-252-WT peptide.
# peptide pulsed T2 cells [2] = experiment: CTL line induced with Foxp3-9-252-9V against peptide-pulsed T2 cells; type: cell-based, human; settings: FIG. 7D, listed as Foxp3-9-252-9V
# Description: (§2) In FIG. 7C CTLs could be induced by stimulation with Foxp3-9-252 substitutions targeted HLA-A2 molecule. CTLs for all substituted peptides targeted HLA-A2 molecule were generated in the way as described in “Materials and Methods”. […] CTL line induced with Foxp3-9-252-9V peptide was used as responder cells. T2 cells incubated with Foxp3-9-252-9V (-solid circle-) or Foxp3-9-252-WT (-open circle-) peptide and without any peptide (-open square-) were used as stimulator cells in this assay (1×10^4 cells/well).
# (§3) On the other hand, the present inventers attempted the induction of CTLs using all substitutions restricted HLA-A*0201 including Foxp3-9-252-9V peptide. […] After CTL line induced by stimulation with Foxp3-9-252-9V was established by in vitro expansion, the CTL activity was determined by using stimulator cells pulsed with Foxp3-9-252-WT or Foxp3-9-252-9V peptide.
# HLA-A2 molecule = biological target: T1, HLA-A2 molecule (Homo sapiens, UniProt P04439, D140Y/D185E/D98H/E176V/E277Q/G131W/G231S/I119V/I121R/I166T/I218V/L300P/L318F/N151K/N90K/P208A/P217A/Q86G/Q94H/R138H/R169H/T345S); experiment: CTL induction with Foxp3-9-252 substitutions restricted HLA-A*0201; type: cell-based; settings: FIG. 7C; for IFN-gamma production compared with the control: positive wells
# T1 construct: peripheral blood mononuclear cells (PBMCs) isolated from normal volunteer (HLA-A*2402 and/or HLA-A*0201); endogenous in cells; host or cells: monocyte-derived dendritic cells of HLA-A*0201 volunteers; T2 cells as stimulators in the read-out
# Description: as §2
# Monocyte-derived dendritic cells (DCs) were used as antigen-presenting cells (APCs) to induce CTL responses against peptides presented on HLA. DCs were generated in vitro as described elsewhere (Horiguchi S. et al. Cancer Res. 59:2950-6). Specifically, peripheral blood mononuclear cells (PBMCs) isolated from normal volunteer (HLA-A*2402 and/or HLA-A*0201) with Ficoll-Plaque (Pharmacia) solution were separated by adherence to plastic tissue culture dish (Becton Dickinson) so as to enrich them for the monocyte fraction. The monocyte-enriched population was cultured in the presence of 1000 U/ml of GM-CSF (R&D System) and 1000 U/ml of IL-4 (R&D System) in AIM-V medium (Invitrogen) containing 2% heat-inactivated autologous serum (AS). After 7 days in the culture, the cytokine-generated DCs were pulsed with 20 mcg/ml of the synthesized peptides in the presence of 3 mcg/ml of beta2-microglobulin for 4 hrs at 20 degrees C. in AIM-V medium. These peptide-pulsed DCs were then inactivated with mitomycin C (MMC) (30 mcg/ml for 30 mins) and mixed at a 1:20 ratio with autologous CD8+ T cells, obtained by positive selection with CD8 Positive Isolation Kit (Dynal). These cultures were set up in 48-well plates (Corning); each well contained 1.5×10^4 peptide-pulsed DCs, 3×10^5 CD8+ T cells and 10 ng/ml of IL-7 (R&D System) in 0.5 ml of AIM-V/2% AS. Three days later, these cultures were supplemented with IL-2 (CHIRON) to a final concentration of 20 IU/ml. On day 7 and 14, the T cells were further restimulated with the peptide-pulsed autologous DCs. The DCs were prepared each time through the same procedure described above. CTL activity was tested against peptide-pulsed A24LCL cells or T2 cells after the 3rd round of peptide stimulation on day 21.
# as §1, §3
sequence,measurement,setting,value
KLSAMQAHV (peptide vaccine) [SEQ ID NO 95],IFN-gamma production of Foxp3-9-252-WT induced CTLs against peptide pulsed T2 cells,peptide pulsed T2 cells [1],produced IFN-gamma; also recorded: recognize the cells presenting Foxp3-9-252-9V peptide on HLA-A2 molecule
same,recognition of Foxp3-9-252-WT pulsed stimulator cells by CTLs induced with substituted peptide,peptide pulsed T2 cells [2],recognized stimulator cells pulsed Foxp3-9-252-WT peptide as equal to that pulsed Foxp3-9-252-9V peptide; also recorded: recognize stimulator cells coated with Foxp3-9-252-WT peptide
same,CTL induction by stimulation with substituted peptide,HLA-A2 molecule,CTLs were induced
same,IFN-gamma production compared with the control,HLA-A2 molecule; listed as Foxp3-9-252-9V,showed IFN-gamma production
same,IFN-gamma production compared with the control,HLA-A2 molecule; listed as Foxp3-A02-9-252-9V,peptide-dependent IFN-gamma production

# Reference: patent US8563516B2, “Foxp3 peptide vaccine” (OncoTherapy Science, Inc., priority 2007, dated 2013)
